Measurements from PMC2150902 (The Journal of Cell Biology, 2001).

Biological target: the molecule itself
Assay: dynamic light scattering

B1: Δ9-Sar1A (hamster Sar1 lacking residues 2–9), GDP-bound form (domain or fragment)
chain: not shown
  stoichiometry N: 2
